Reference: the nanobody polyreactivity screen of Harvey et al. (2022)

Assay: yeast display, Sf9 membrane polyspecificity reagent, FACS + sequencing; frameworks hold sequencing errors
Method in brief: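 Polyreactivity labels are assigned by the sorting gate from which each nanobody was recovered. The gates were low and high (top ~1%), set on anti-HA fluorescence for expression and streptavidin fluorescence for reagent binding. Before sorting, galactose-induced (36–48 hours) yeast display cells were stained for 1 hour at 4 °C with 10% biotinylated, detergent-solubilized Sf9 membrane reagent.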

Row | Sequence | polyreactivity (PSR sort gate)
1 | QVHLVESGGGLVQAGGSLRLSCAASGYIFRRYAMGWYRQAPGKERELVAAISFSGGSTYYADSVKGRFTISRDNAKNSVYIQMNSLKPDDTAVYYCAGLSLLRYDYWGQGTQVTVSS | high polyreactivity
2 | QVQLVESGGGLVQAGGSLRLSCAASGLTFTGYAMGWYRQATGKERELVASISRSGASTFYADSVKGRFTISRDNAKNTVYLQMNSLKPEDTAVYYCAAVPGWLTSRYYYWGQGTQVTVSS | high polyreactivity
3 | QVQLVESGGGLVQAGGSLRLSCAASGSTFATNAMGWDRQAPGKERELVASISSGGSTTYADSVKGRFTISRDNAKNTVYLQMNSLKPEDTAVYYCNKRYLWRNSRGFDYWGQGTQVTVSS | low polyreactivity
4 | QVQLEESGGGLVQAGGSLRLSCAASGRIFRSYAMGWYRQAPGKERELVAAISQRGGRTYYADSVKGRFTISRDNAKNTVYLQMNSLKPEDTAVYYCAKSNPKLGYYYLQGDLYDYWGQGTQVTVSS | low polyreactivity
5 | QVQLVESGGGLVQAGGSLRLSCAASGSTFYIYAMGWYRQAPGKERELVAAITWSGGSTYYADSVKGRFTISRDNAKNTVYLQMNSQKPEDTAVYYCATKRARYSYDYWGQGTQVTVSS | high polyreactivity
6 | QVQLVESGGGLVQAGGSLRLSCAASGFTFGRYDMGWYRQAPGKERELVAAISSGGNTYYADSVKGRFTISRDNAKNTVYLQMNSLKPEDTAVNYCNARTSYYSRFDYWGQGTQVTVSS | high polyreactivity
7 | QVQLVESGGGLVQAGGSLRLSCAASGRIFSLNAMGWYRQAPGKERELVAGIRKSGGSTYYADSVKGRFTISRDNAKNTVYLQMNSLKPEDTAVYYCAAQPALTYRFYYWGQGTQVTVSS | high polyreactivity
8 | QVQLVESGGGLVQAGGSLRLSCAASGRTLRHYAMGWYRQAPGKERELVAAISSTGSSTYYADSVKGRFTISRDNAKITVYLQMNSLKPEDTAVYYCAADKYTWDAGGVVYWGQGTQVTVSS | low polyreactivity
9 | QVQLVESGGGLVQAGGSLRLSCAASGLTFGPNAMGWYRQAPGKERELVAAITKSGGSTYYADSVKGRFTISRDNAKNTVYLQMNSLKPEDTAVFYCAARAGYKVFGYWGQGTQVTVSS | high polyreactivity
10 | QVQLVESGGGLVQAGGSLRLSCAASGRTFVHYTMGWYRQTPGKDRELVAAISGTGTSTYYADSVKGRFTISRDNAKNTVYLQMNSLKPEDTAVYYCARDPYFGFHIGYPRRDYWGQGTQVTVSS | low polyreactivity
11 | QVQLVESGGGLVQAGGSLRLSCAASGRIFYYYAMVWYRQAPGKERELVAAITRRGGSTYYADSVKGRFTISRDNAMNTVYLLMNSLKPEDTAVYYCAKPVRTGWLDGDYWGQGTQVTVSS | low polyreactivity
12 | QVQLVESGGGLVQAGGSLRLSCAASGSIFLFNAMGWNRQAPGKERELVAANTSSGTRTYYADSVKGRFTISRDNAKNTVYLQMNSMKPEDTAVYYCNAVGPVDSYHRYYYWGQGTQVTVSS | low polyreactivity
13 | QVQLVESGGGLVQAGGSLRLSCAASGRTIDPNAMGWYRQAPGKERELVAAITRTGVRTYYADSVKGRFTISRDNAKNTVYLQMNSLKPEDTAVYYCNRYGARSNDYWGQGTQVTVSS | low polyreactivity
14 | QVQLEESGGGLVQAGGSRRLSCAASGSIFIANAMGWYRQAAGKEREFVAGISASGSSTYYADSVKVRFTISRDNAKNTVYLQMNILKPEDTAVNYCAAGSYYWGQGTQVTVSS | high polyreactivity
15 | QVQLVESGGGLVQAGGSLRLSCAASGPIFRGYAMGWYRQAPGKERELVARITSGGRTYYADSVKGRFTISRDNAKNTVYLQMNSLKPEDTAVYYCATVGRGYDERHNYWGQGTQVTVSS | high polyreactivity
16 | QVQHVESGGGLVQAGGSLRLSCAASGSTFGRYGMGWYRQAPGTERELVAAISRGGGTNYADSVKGRFTISRDNAKKTVYLQMNSLKPEDTAVYYCNARWYYALYDYWGQGTQVTVSS | low polyreactivity
17 | QVQLVESGGGLVQAGGSLRLSCAASGRIIVHYAMGWYRQAPGKERELVAAISWSGGSTYYADSVKGRFTISRDIGNNTVYLQMNSLKPEDTAVYYCNALDPLYFRYDYWGQGTQVTVSS | low polyreactivity
18 | QVQLVESGGGLVQAGGSLRLSCAASGFYLNAMGWYRQAPGKERELVATITSSATNTYYADSVKGRFTISRDNAKNTVYLQMNSLKPEDTAVYYCNARYTSHTHADGVYLYDYWGQGTQVTVSS | low polyreactivity
19 | QVQLVESGGGLVQAGGSLRLSCAASGSTFRINAMGWYRQAPGKERELVAAISRSGSITYYADSVKGRFTISRDNAKNTVYLQMNSLKPEDTAVYYCAAKSRKGGDYWGQGTQVTVSS | high polyreactivity
20 | QVQHVESGGGLVQAGGSLRLSCAASGSTFDAYAMGWYRQAPGKERELVAAISWSDTTTYYADSVKGRFTISRDTAKNTVYLQMYSLKPEDTAVSYCADEYYFTDGSYTSDYWGPGTQVTVSS | high polyreactivity
21 | QVQLVESGGGLVQAGGSLRLSCAASGSTFYYYAMGWYRQAPGKERELVATISSGSSTNYADSVKGRFTISRDNAKNTVYLQMNSLIPEDTAVYYCAADRWYINLYIDATISYDYWGQGTQVTVSS | low polyreactivity
22 | QVQLVESGGGLDQAGGSLRLTWAASGSIIGRNFMGLYRQAPGKEREFLAAIRSSGATTYYADSVKGRFTISRDNAKYTVFLQMTSLKPEDTAVYYCNARPPYYTVQTGGYDYWGQGTQVTVSS | low polyreactivity

Row | Sequence | polyreactivity (PSR sort gate)
23 | QVQLVESRGVLVQAGGSLRLSCAASGRTFYYYAMGWYRQAPRKERELVAAINTRRTSTYYADSVKGRFTISRDNAKKTVYLQMNSLKPEDTAVYYCAVDPYGDSWEDWFRNYYYGYDYWGQGTQVTVSS | low polyreactivity
24 | QVQLVESGGGLVQAGGSLRLSCAASGSIFGDNTMGWYRQAPGKERELVAAISWRGGSTYYADSVKGRFTISRDNAKNTVYLQMNSLKPEDTAVYYCIGGPGGYDYWGQGTQVTVSS | low polyreactivity
25 | QVHLVESGGGIVQAGGSLRLSCAASGRTFGVNAMGWYRQAPGQEMELVAAISYSGASTFYADSLKGRFTISRDKAKNNVYLQMNSLKPEDTAVYYCAKRVVRYGKRMGYWGQGTQVTVSS | high polyreactivity
26 | QVQLVESGGGLVQAGGSLRLSCAASGGIFAIYAMGWYRQAPGKEREFVATISWRGGSTYYADSVKGRFTISRDNAKNTVYLQMNSLKPEDTAVYYCAAPHFSYSGGTHDYWGQGTQVTVSS | high polyreactivity
27 | QVQLVESGGGLVQAGGSLRLSCAASGSIFSKYAMGWYRQAPGKERELVAAISGSGGDTYYADSVKGRFTISRDNAKNTVYLQMNSLKPEDTAVYFCAAEDQQNGYDYWGQGTQVTVSS | low polyreactivity
28 | QVKLVESGGRLVQAGGSLRLTCAASGFIFLNYSMGWYRQAHGKERELVAAISRSGGRTYYADSVTGRFTISRDYAKNTVYLQMNSLKPEDPAVYYCAVYIYGIVFYFTYMYVNCYDYWGQGTQVTVSS | high polyreactivity
29 | QVQLVESGGGLVQAGGSLRLSCAASGRIFVYYAMGWYRQAPGKERELVASISYSGASTYYADSVKGRFTISRDNAKNTVYLQMYSLKPEDTAVYYCNTDGDDFFHVIYDYWGQGTQVTVSS | low polyreactivity
30 | QVQLVESGGGLVQAGGSLRLSCSASGSIFRSNAIGWYRQAPGKERELGAAISWSNDSTYYADSVKGRFTISRDNAKNTVYLQMNSLKPEDSAVYYCAAVGSGRYSGYDFLGQGTQVTVSS | high polyreactivity
31 | QVQLEESGGGLVQAGGSLRLSCAASGRTFSRYAMGWYRQAPGKERELVAAIRGNSGNTYYADSVKGRFTISRDNAKNTVYLQMNSLKPEDTAVYYCAKPFNIWGQGTQVTVSS | high polyreactivity
32 | QVQLVESGGGLVQAGGSLRLSCAASGNIFYAYDMGWYRQAPGKERELVAAITNGDSTDYADSVKGRFTISRENAKNTVYLQMNSLKPEDTAVYYCNADYLPAPWALGGSQYDYCGQGTQVTVSS | low polyreactivity
33 | QVQLVESGGGLVQAGGSLRLSCAASGRIFNYYAMGWYRQAPGKERELVAAISKRGGRTYYADSVKGRFTISRDNAKNTVYLQMNSLKPEDTAVYYCNKGFLPSWFTYPYKYYYWGQGTQVTVSS | low polyreactivity
34 | QVQLVESGGGLVQAGGSLRLSCAASGRIFYSYAMGGYRQAPGKERELVATITNGGSTNYADSVKGRFTISRDNAKNTVYLQMNSLKPEDPAVYYCATDQFTRSVDFDYWGQGTQVTVSS | high polyreactivity
35 | QVQLVESGGGLVQAGGSLRLSCAASGSTFYGNPLGWYRKAPGKERELVAAIRRSGGRTYYADSVKGRFTISRDNAKNTVYLQMNSLKPEDTAVYYCAAAKYSGAYRSTMNYWGQGTQVTVSS | high polyreactivity
36 | QGQRVESGGGLVQAGGSLRLSCAASGSIFHGYAMGWDRQAPGKERELVADITSGGGTYYADSVKGRFTISRDNAKTTVYLQMNSLKPEDTAVYYCATQKSRRYGYWVQGTQVTVSS | low polyreactivity
37 | QVQLVESGGGLVQAGGSLRLSCAASGHTYRYYAMGWYRQAPGKERELVAAITGGGGSTYYADSVKGRFTISRDNAKNTVYLQMNSLKPEDTAVYYCATGGVSGIVGGDYWGQGTQVTVSS | low polyreactivity
38 | QVQLVESGGGLVQAGGSLRFSCAASGSIFSWYAMGGYRQAPGKERELVAAITWTGGSTYYADSVKGRFTISRDNAKNTVYLQMNSLKPEETAVYYCAARRVVYRKYGDRARWYNYWGHGTQVTVSS | high polyreactivity
39 | QVQLVESGGGLVQAGGSLRLSCAASGRTFPAYAMGWYRQAPGKERELVAAISYSGGRTRYADSVKGRFTISRDNAKNTVYLQMNSLKPEDTAVYYCNRVIPTHSLRDYYWGQGSQVTVSS | high polyreactivity
40 | QVQLVESGGGLVQAGGSLRLSCAASGSTLPANAMGWYRQAPGKERELVAAITITTDGSTYYADSVKGRFTISRDNAKNTVYLQLNSLKPEDTAVYYCAVARYRYHIRKMGYWGQGTQVTVSS | low polyreactivity
41 | QVQLVESGGGLVQAGGSLSLSCAASGRTFLIYAMGWYRQAPGKERELVAAITSGDNTYYADSVKGRFTISRDNAKNTVYLQMNSLKPEDTAVYYCAAGGYVRNYYTYEHWGQGTQVTVSS | low polyreactivity
42 | QVQIVESGGGLVQAGGSIRLSCAASGYTFVIYAMGSYRPAPGKERELVAAITTIGGRTYYADSVKGRFTISRDNAKNTVYLQMNSLKPEDTAVYYCAADIRSNRLYDGGYWGQGTQVTVSS | low polyreactivity
43 | QVQLVESGGGLVQAGGSLRLSCAASGSIFFRYTMGWSRQAPGTERELVAAITGSGGSTYYADSVKGRFTISRDNAKNTVYLQMNSLKTEDTAVYYCARPGWGRYEYWGQGTQVTVSS | high polyreactivity
